Laboratory results: US8241646B2, “Method for generating active antibodies against a resistance antigen, antibodies obtained by said method and their uses” (Pierre Fabre Medicament, priority 2006, dated 2012)

B1: 3C11: monoclonal antibody, heavy chain SEQ ID No. 31, light chain SEQ ID No. 32; hybridoma CNCM I-3614; IgM k (antibody, V domains shown)
VH: QVQLKESGPGLVAPSQSLSITCTVSGFSLSSYGVHWVRQPPGKGLEWLGVIWVGGTTNFKSALMSRLSISKDNSKSQVFLKMNSLQTDDTAMYYCARERPYGNPLVDWGQGTLVTVSA
VL: DIVMTQSHKFMSTSVGDRVSITCKASQDVSTAVAWYQQKPGQSPKLLIYSASYRYTGVPDRFTGSGSGTDFTFTISSVQAEDLAVYYCQQHYSNPRTFGGGTKLEIK
modifications: mus musculus
notes: hybridoma CNCM I-3614; IgM k
B2: 3G7: monoclonal antibody, heavy chain SEQ ID No. 39, light chain SEQ ID No. 40; hybridoma CNCM I-3616; IgM (antibody, V domains shown)
VH: QVQLQQSGPELVRPGTSVKISCKASGYTFTNYWLGWVKQRPGHGLEWIGDIFPGGIYTNYNEKIKGEATLTADTSSSTAYLQLSSLTSEDSFVYFCARFDDFDPFFASWGQGTLVTVSA
VL: DVLMTQTPLSLPVSLGDQASISCRSSQTIVHSNGNTYLEWYLQKPGQSPKLLIYKVSNRFSGVPDRFSGSGSGTDFTLNISRVEAEDLGIYYCFQSSRVPYTFGGGTKLEIK
modifications: mus musculus
notes: hybridoma CNCM I-3616; IgM
B3: 1A9: monoclonal antibody, heavy chain SEQ ID No. 15, light chain SEQ ID No. 16; hybridoma CNCM I-3613; IgG1 k (antibody, V domains shown)
VH: QIQLVQSGPELKKPGETVKISCKASGQTFTNYGMNWVKQAPGKGLKWMGWINTYTGEPTYADDFKGRFAFSLETSASTAYLQINNLKNEDTATYFCARGGYYRYAAYWGQGTLVTVSA
VL: DIQMTQSPASLSASVGETVTITCRASGNIHNYLAWYQQKQGKSPQLLVYNAKTLADGVPSRFSGSGSGTQYSLKINSLQPEDFGCYFCQHFWTTPYTFGGGTKLELI
modifications: mus musculus
notes: hybridoma CNCM I-3613; IgG1 k
B4: 1A6: monoclonal antibody, heavy chain SEQ ID No. 7, light chain SEQ ID No. 8; hybridoma CNCM I-3612; IgM k (antibody, V domains shown)
VH: EVQLQQSGPELVKPGASVKISCKTSGYTFTEYTLHWVKQSHGKSLEWIGGIDPNNGGTSYNQKFKGKATLTVDKSSSTAYMELRSLTSEDSAVYLCARSNSYYFDYWGQGTTLTVSS
VL: DIQMTQTTSSLSASLGDSVTISCRARQDIRNFLNWYQQRPDGTVKLLIYYTSRLHSGVPSRFSGSGSGTDYSLTISNLDQEDVATYFCQQGNTLPFTFGSGTKLEIK
modifications: mus musculus
notes: hybridoma CNCM I-3612; IgM k
B5: 2E11: monoclonal antibody, heavy chain SEQ ID No. 23, light chain SEQ ID No. 24; hybridoma CNCM I-3615; IgG1 k (antibody, V domains shown)
VH: EVQLQQSGAEVVKPGASVKLSCTASGFNIKDTYMHWVKQRPEQGLEWIGRIDPANGNTKSDPKFQGKAIKTADTSSNTAYLQLSSLTSEDTAVYYCTSGYTNYVWFTYWGQGTLVTVSA
VL: DIVMSQSPSSLAVAAGEKVTMSCKASQSLLNSRTRKNYLAWYQQKPGQSPKLLIYWASTRESGVPDRFTGSGSGTDFSLTISSVQAEDLAVYYCKQSYNLYTFGGGTKLEIK
modifications: mus musculus
notes: hybridoma CNCM I-3615; IgG1 k

Experiments:
[1] = system: different cell lines; experiment: Recognition of different cell lines by the antibodies with the FACSCAN instrument; assay type: cell-based; details: FACSCAN analysis of a panel of tumor lines
From the text: The hybridomas secreting antibodies recognizing the resistant tissues, and recognizing neither the tumors from the control batch PBS nor the native A549 cell which was used for establishing the tumor in vivo, are cloned and frozen. The antibodies are then produced in ascite liquid, purified, retested in immunohistochemistry before being tested in vivo on cells expressing a surface structure or antigen recognized by the antibodies (these cells were selected beforehand by FACSCAN analysis of a non-exhaustive panel of tumor lines available for each antibody).
Table 6 below as for it, groups the cells recognized by these antibodies (Recognition of the antibodies selected in histology with the FACSCAN instrument, of different cell lines).

[2] = system: BxPC3 cells; experiment: Pancreas xenograft model BxPC3; assay type: in vivo, athymic "Nude" mice; details: 1 mg/dose two times a week; results in FIG. 7
Experimental: 10.10^6 BxPC3 cells are grafted on athymic “Nude” mice. Five days after the grafting, the tumors are measurable and the mice are divided into two batches of six mice with tumors of homogenous size. The mice are either treated with PBS (negative control) or with the antibody 2E11 (1 mg/dose), two times a week. Tumor volume tracking is carried out twice a week.
The results are illustrated in FIG. 7.

| Molecule | In vivo model (cells recognized by these antibodies) [1] | In vivo model (cells recognized by these antibodies) ([1]; clone D10) | anti-tumoral activity (tumor volume) [2] |
| --- | --- | --- | --- |
| B1 | Colo205 |  |  |
| B2 | DU145 |  |  |
| B3 | HepG2/H69/LnCap |  |  |
| B4 |  | LnCap/HT29 |  |
| B5 | HT29/BxPC3/H69 |  | validate the functional activity |
